Target: the molecule itself
Assay: native gel or EMSA; native-PAGE of 2.5 mg/mL bovine GDH without EGCG or trypsin

B1: bovine glutamate dehydrogenase (enzyme)
chain: not shown
notes: Glutamate dehydrogenase 1, bovine, commercial preparation; Used as a substitute for wild-type human GDH in the gel experiments; also called Bovine GDH; Bo.GDH
Question: With B1 as the protein, how does the “stoichiometry N” value read?
Answer: 6
